By koff is commonly meant a measure of how fast the partners let go of each other. As usually defined, the kon is the second-order rate constant of association. For orientation: stoichiometry N means a count of units in the complex or per binding partner.

Where two headings read alike, the source gives them in different places.

The target of assay [1] is C-terminally biotinylated IL-13Rα2 (human) (UniProt Q14627). In words: SPR. Background: In SPR one partner is held on a chip, and binding of the other changes the refractive index at the surface.
Assay [2] addresses C-terminally biotinylated IL-13Rα1 (UniProt P78552). In words: SPR.
Assay [3] addresses T1, Human IL-13 (amino acids 21–132), wild type, fully glycosylated (human, UniProt P35225 35-146, fully glycosylated). In words: ITC. (ITC needs no label: the signal is the heat of the interaction.)
The target in assay [4] is T1, Human IL-13 (amino acids 21–132), wild …. In words: ITC. This is another data set of the same source.
The next assay has as its target IL-13 F107A (human). In words: ITC.
A further assay deals with IL-13 K104A (human). The assay is described as follows: ITC.

Consider IL-13 I14A (ligand), for which, in assay [1], the koff was 0.000152 s⁻¹ and the kon was determined as 1.79e+07 M⁻¹ s⁻¹.

Molecule IL-13 T88A (ligand) showed a koff in assay [2] of 0.00488 s⁻¹.

In assay [2], IL-13 L101A (ligand) gave a koff of 0.00463 s⁻¹ and a kon of 3.53e+06 M⁻¹ s⁻¹.

Consider IL-13 R11A (ligand), for which, in assay [2], the koff was found to be 0.00487 s⁻¹ and the kon was found to be 1.87e+06 M⁻¹ s⁻¹.

Turning to IL-13 E15A (ligand), in assay [2], the koff was determined as 0.00445 s⁻¹ and the kon stood at 2.82e+06 M⁻¹ s⁻¹.

In assay [1], IL-13 K104A (ligand) gave a koff of 0.00271 s⁻¹ and a kon of 9.64e+06 M⁻¹ s⁻¹.

IL-13 F107A (ligand): in assay [1], the koff was 0.000945 s⁻¹ and the kon turned out to be 1.15e+07 M⁻¹ s⁻¹.

In assay [2], IL-13 K105A (ligand) yielded a koff of 0.00771 s⁻¹ and a kon of 1.31e+06 M⁻¹ s⁻¹. In addition, in assay [1], the koff was found to be 1.06e-05 s⁻¹ and the kon came out at 9.16e+06 M⁻¹ s⁻¹.

In assay [2], IL-13 D87A (ligand) gave a koff of 0.00751 s⁻¹ and a kon of 2.74e+06 M⁻¹ s⁻¹.

In assay [2], IL-13 V18A (ligand) came in with a koff of 0.00443 s⁻¹ and a kon of 3.26e+06 M⁻¹ s⁻¹.

B1: IL-13Rα2 ectodomain (amino acids 29–331) (receptor, human, UniProt Q14627 29-331, looked up)
chain: EIKVNPPQDFEIVDPGYLGYLYLQWQPPLSLDHFKECTVEYELKYRNIGSETWKTIITKNLHYKDGFDLNKGIEAKIHTLLPWQCTNGSEVQSSWAETTYWISPQGIPETKVQDMDCVYYNWQYLLCSWKPGIGVLLDTNYNLFYWYEGLDHALQCVDYIKADGQNIGCRFPYLEASDYKDFYICVNGSSENKPIRSSYFTFQLQNIVKPLPPVYLTFTRESSCEIKLKWSIPLGPIPARCFDYEIEIREDDTTLVTATVENETYTLKTTNETRQLCFVVRSKVNIYCSDDGIWSEWSDKQCW
modifications: fully glycosylated
For the molecule B1, the dH was -20 kcal/mol in assay [3], -20.1 kcal/mol in assay [4], -17.1 kcal/mol with IL-13 F107A (human) and -20.4 kcal/mol with IL-13 K104A (human). Moreover, the “stoichiometry N” value in assay [3] was 0.98; in assay [4], 0.943; in the assay with IL-13 F107A (human), 0.949; with IL-13 K104A (human), 0.884.

B2: IL-13Rα1 soluble extracellular domain (receptor, UniProt P78552 22-343, looked up)
chain: GGGGAAPTETQPPVTNLSVSVENLCTVIWTWNPPEGASSNCSLWYFSHFGDKQDKKIAPETRRSIEVPLNERICLQVGSQCSTNESEKPSILVEKCISPPEGDPESAVTELQCIWHNLSYMKCSWLPGRNTSPDTNYTLYYWHRSLEKIHQCENIFREGQYFGCSFDLTKVKDSSFEQHSVQIMVKDNAGKIKPSFNIVPLTSRVKPDPPHIKNLSFHNDDLYVQWENPQNFISRCLFYEVEVNNSQTETHNVFYVQEAKCENPEFERNVENTSCFMVPGVLPDTLNTVRIRVKTNKLCYEDDKLWSNWSQEMSIGKKRNST
modifications: fully glycosylated
Take B2: in assay [3], the dH was -11.4 kcal/mol and the “stoichiometry N” value is 0.937.

(Values after PMC2850121 (Structure (London, England : 1993), 2010).)
